Biological target: SARS-CoV-2 S-I53-50A.1NT1 fusion protein (SARS-CoV-2)
Assay: SEC; Superose 6 increase 10/300 GL in TBS with 5% glycerol; fractions between 12-14 mL pooled; blue native gel of the pooled fractions

Substance: SARS-CoV-2 S-I53-50A.1NT1 fusion protein
- stoichiometry N: 3
